Data on 1 molecule can be found in paper PMC12273918 (2025).

In assay [1] the target is CD163 42-1045 (Homo sapiens, UniProt Q86VB7). Nature of the assay: SPR.
For assay [2], the target named is T1, CD163 D1-D5 (Homo sapiens, UniProt Q86VB7).
T1 chain: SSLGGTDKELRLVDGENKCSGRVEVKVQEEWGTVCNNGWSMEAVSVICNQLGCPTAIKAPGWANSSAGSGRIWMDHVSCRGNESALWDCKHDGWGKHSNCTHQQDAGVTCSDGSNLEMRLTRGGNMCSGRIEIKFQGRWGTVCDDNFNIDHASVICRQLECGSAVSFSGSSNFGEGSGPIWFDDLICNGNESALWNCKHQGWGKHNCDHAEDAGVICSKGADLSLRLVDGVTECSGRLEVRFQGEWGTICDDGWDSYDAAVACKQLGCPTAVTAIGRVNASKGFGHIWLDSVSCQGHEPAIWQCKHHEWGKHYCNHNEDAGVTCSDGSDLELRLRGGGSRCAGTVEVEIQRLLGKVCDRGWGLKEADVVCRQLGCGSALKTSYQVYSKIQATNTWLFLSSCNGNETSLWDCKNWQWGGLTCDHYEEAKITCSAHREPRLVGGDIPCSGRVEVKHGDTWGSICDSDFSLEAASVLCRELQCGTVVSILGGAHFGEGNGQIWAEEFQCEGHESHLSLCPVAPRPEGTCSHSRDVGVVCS
Nature of the assay: SPR.

B1: Haptoglobin(1-1)-hemoglobin complex (protein)
chain 1: VDSGNDVTDIADDGCPKPPEIAHGYVEHSVRYQCKNYYKLRTEGDGVYTLNDKKQWINKAVGDKLPECEADDGCPKPPEIAHGYVEHSVRYQCKNYYKLRTEGDGVYTLNNEKQWINKAVGDKLPECEAVCGKPKNPANPVQRILGGHLDAKGSFPWQAKMVSHHNLTTGATLINEQWLLTTAKNLFLNHSENATAKDIAPTLTLYVGKKQLVEIEKVVLHPNYSQVDIGLIKLKQKVSVNERVMPICLPSKDYAEVGRVGYVSGWGRNANFKFTDHLKYVMLPVADQDQCIRHYEGSTVPEKKTPKSPVGVQPILNEHTFCAGMSKYQEDTCYGDAGSAFAVHDLEEDTWYATGILSFDKSCAVAEYGVYVKVTSIQDWVQKTIAEN
chain 2: not shown
chain 3: not shown
modifications: Ca2+ (5 mM CaCl2), biotinylated Hp(1-1) immobilized
By Kd is commonly meant the concentration at which binding is half-saturated. High values mean weaker binding, low ones tighter binding. For B1, the results for the Kd in assay [1] and in assay [2] were about 72 nM and about 684 nM, respectively.
